{"source": "patent US20190257837", "target": "T1, human recombinant nidogen-1 (intact, incubated without proteases), P14543", "T1 chain": "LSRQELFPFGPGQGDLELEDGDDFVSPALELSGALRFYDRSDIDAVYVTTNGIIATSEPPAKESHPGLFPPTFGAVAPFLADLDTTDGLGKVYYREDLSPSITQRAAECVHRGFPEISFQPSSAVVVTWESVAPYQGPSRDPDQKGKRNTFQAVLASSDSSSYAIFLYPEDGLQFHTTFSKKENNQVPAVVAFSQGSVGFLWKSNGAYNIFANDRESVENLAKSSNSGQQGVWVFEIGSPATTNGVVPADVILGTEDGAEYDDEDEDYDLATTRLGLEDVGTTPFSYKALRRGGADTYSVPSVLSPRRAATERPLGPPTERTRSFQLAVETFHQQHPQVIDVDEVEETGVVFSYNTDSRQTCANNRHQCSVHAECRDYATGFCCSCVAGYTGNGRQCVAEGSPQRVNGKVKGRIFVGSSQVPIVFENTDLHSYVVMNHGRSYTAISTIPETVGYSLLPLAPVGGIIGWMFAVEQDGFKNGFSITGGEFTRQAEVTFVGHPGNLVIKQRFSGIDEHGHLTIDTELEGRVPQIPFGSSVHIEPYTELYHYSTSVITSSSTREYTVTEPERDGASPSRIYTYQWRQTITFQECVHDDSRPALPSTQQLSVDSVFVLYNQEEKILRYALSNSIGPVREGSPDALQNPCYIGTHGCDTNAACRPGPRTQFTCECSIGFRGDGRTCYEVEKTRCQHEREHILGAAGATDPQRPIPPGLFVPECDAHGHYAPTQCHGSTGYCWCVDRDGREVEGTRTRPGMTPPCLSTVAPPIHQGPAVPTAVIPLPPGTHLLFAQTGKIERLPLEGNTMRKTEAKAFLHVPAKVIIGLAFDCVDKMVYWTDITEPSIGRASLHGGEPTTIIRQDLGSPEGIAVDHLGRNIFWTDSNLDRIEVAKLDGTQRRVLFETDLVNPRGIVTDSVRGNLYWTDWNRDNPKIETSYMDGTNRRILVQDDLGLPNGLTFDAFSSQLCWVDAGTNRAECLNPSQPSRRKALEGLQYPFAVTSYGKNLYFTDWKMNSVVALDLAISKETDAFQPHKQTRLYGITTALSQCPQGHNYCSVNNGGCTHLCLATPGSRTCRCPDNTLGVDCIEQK", "data": [{"protein": "human recombinant cathepsin S (protein) LPDSVDWREKGCVTEVKYQGSCGACWAFSAVGALEAQLKLKTGKLVSLSAQNLVDCSTEKYGNKGCNGGFMTTAFQYIIDNKGIDSDASYPYKAMDQKCQYDSKYRAATCSKYTELPYGREDVLKEAVANKGPVSVGVDARHPSFFLYRSGVYYEPSCTQNVNHGVLVVGYGDLNGKEYWLVKNSWGHNFGEEGYIRMARNKGNHCGIASFPSYPEI", "values": [{"measurement": "NIC levels after incubating nidogen-1 with CatS (competitive NIC ELISA)", "result": "Approximately 5-fold higher levels of NIC were detected after incubating nidogen-1 with CatS for 24 h"}]}]}
